The record followed here is patent publication US20040141994.

The data set concerns the target UL12 alkaline nuclease (Herpes simplex virus 1) (UniProt P04294). Put plainly: cleavage_in_vitro. The following applies: optimal nuclease conditions; 0.06 at strand exchange conditions (pH 7.5, 1 mM MgCl2, 40 mM NaCl, 37 C).

Sequence of UL12 alkaline nuclease (Herpes simplex virus 1) (P04294 whole entry): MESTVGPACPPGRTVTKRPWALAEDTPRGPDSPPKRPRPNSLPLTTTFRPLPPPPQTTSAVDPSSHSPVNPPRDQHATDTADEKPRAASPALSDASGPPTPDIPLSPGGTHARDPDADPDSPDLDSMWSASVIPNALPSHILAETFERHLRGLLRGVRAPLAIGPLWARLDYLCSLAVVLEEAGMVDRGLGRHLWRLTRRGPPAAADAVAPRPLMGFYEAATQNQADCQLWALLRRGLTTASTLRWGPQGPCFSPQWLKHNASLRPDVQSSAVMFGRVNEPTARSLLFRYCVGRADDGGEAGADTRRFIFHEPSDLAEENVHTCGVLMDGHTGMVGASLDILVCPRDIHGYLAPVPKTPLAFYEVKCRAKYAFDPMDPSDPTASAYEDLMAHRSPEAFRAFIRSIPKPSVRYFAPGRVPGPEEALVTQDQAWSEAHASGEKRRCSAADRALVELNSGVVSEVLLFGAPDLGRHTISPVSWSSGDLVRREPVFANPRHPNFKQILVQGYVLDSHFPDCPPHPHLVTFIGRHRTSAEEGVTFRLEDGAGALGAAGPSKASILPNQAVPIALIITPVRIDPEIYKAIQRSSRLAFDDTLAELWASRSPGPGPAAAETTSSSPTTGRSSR

E. coli chromosomal DNA: the activity (ng DNA/min/ng protein) is 0.2.
